Laboratory results reported in the supplement of paper PMC10724198.
± gives the standard deviation of the averaged measurements.

These sequences were tested on Saccharomyces cerevisiae (assay: protein stability index of tFT-peptide fusion (C-terminal peptide) (PSI (0-1 scale)); higher = more stable (slower turnover)). Details: genetic background: wild type; temperature: 30 C.
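Note: PSI is a weighted mean of sequencing reads over stability bins, variants kept only with over 10 reads, mCherry proximal and sfGFP distal, peptide attached via GGGS linker.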

| Sequence | protein stability index |
| --- | --- |
| TGWASWVSVCLI | 0.5587 ± 0.00094 |
| TGWLRLLHAASG | 0.656 ± 0.045 |
| TGWWSPCRLDSS | 0.722 ± 0.024 |
| THLPLPPPPPLL | 0.655 ± 0.022 |
| THPFLRTHPPVE | 0.714 ± 0.097 |
| THPPPGPHPSAA | 0.717 ± 0.017 |
| THSGRVRIVSFL | 0.654 ± 0.12 |
| THTDQKTNHRRQ | 0.69 ± 0.05 |
| TIAETIGCEKII | 0.785 ± 0.099 |
| TIETDIYAIARV | 0.659 ± 0.041 |
| TIGREENKIANI | 0.651 ± 0.016 |
| TILKLLSEELDK | 0.613 ± 0.025 |
| TISVNLYLPDLL | 0.677 ± 0.057 |
| TKDRIIMKKKKE | 0.7214 ± 0.0031 |
| TKHCRFCKSGFV | 0.7133 ± 0.0063 |
| TKIPVLLKNSAN | 0.704 ± 0.062 |
| TKIQFTITLIGK | 0.578 ± 0.028 |
| TKKKNKLRNKQE | 0.664 ± 0.048 |
| TKKKRKKKNTKK | 0.685 ± 0.061 |
| TKKNKTKKGQNK | 0.7099 ± 0.006 |
| TKRQKEKKKNKE | 0.735 ± 0.042 |
| TLCFRLGFLSYF | 0.604 ± 0.091 |
| TLDGGESSVVAV | 0.685 ± 0.025 |

| Sequence | protein stability index |
| --- | --- |
| TLESRPALVFFS | 0.681 ± 0.0088 |
| TLGTSPPPAYLS | 0.638 ± 0.013 |
| TLPDSSSTSPNL | 0.696 ± 0.063 |
| TLPVPLPSVSHS | 0.685 ± 0.0098 |
| TLSHPANNKNNL | 0.681 ± 0.047 |
| TLSPAPPPPLPP | 0.636 ± 0.093 |
| TLSSGREVVGRW | 0.576 ± 0.012 |
| TLTLVIPTSRDQ | 0.717 ± 0.064 |
| TLWENEKNNKHG | 0.705 ± 0.024 |
| TMLLPPPNLATI | 0.71 ± 0.026 |
| TMRSVSLRSVAS | 0.675 ± 0.022 |
| TMVAVTSILGGL | 0.655 ± 0.084 |
| TNIITRHNKKDK | 0.657 ± 0.078 |
| TNTEEKRKIRRS | 0.697 ± 0.11 |
| TPAYTETNGLST | 0.73 ± 0.042 |
| TPDLNLYSKVYG | 0.695 ± 0.048 |
| TPEQMKIKRNVE | 0.69 ± 0.009 |
| TPFVPLAPLPRS | 0.728 ± 0.056 |
| TPGMCDRQFGVD | 0.685 ± 0.028 |
| TPHQPPPPRPSP | 0.7057 ± 0.0037 |
| TPIAGGAKLFHV | 0.646 ± 0.058 |
| TPKTRPRSRAVK | 0.748 ± 0.015 |
| TPKWRRRLNQGL | 0.719 ± 0.032 |

| Sequence | protein stability index |
| --- | --- |
| TPPLPLPSPPCP | 0.7249 ± 0.0035 |
| TPPLPPSLSPTH | 0.708 ± 0.0085 |
| TPPPHNRTKTTT | 0.682 ± 0.072 |
| TPPPNTPSPLTI | 0.654 ± 0.033 |
| TPPSHTVGIWAS | 0.683 ± 0.039 |
| TPRTRPFNPPPR | 0.729 ± 0.023 |
| TPSIFNRTNGPK | 0.738 ± 0.043 |
| TPTSLPGPRVLS | 0.6596 ± 0.0054 |
| TQEQVQKKLLKS | 0.665 ± 0.015 |
| TQLEHQRESKSI | 0.672 ± 0.021 |
| TQNYPSAFAIPA | 0.552 ± 0.043 |
| TRDEGWSSAARK | 0.637 ± 0.062 |
| TRETKKSIKKQN | 0.673 ± 0.058 |
| TRFCDFTSSVTT | 0.711 ± 0.041 |
| TRGRGDGQLDSA | 0.699 ± 0.024 |
| TRGRGLSGGRFF | 0.658 ± 0.037 |
| TRNGQKVGGVGA | 0.725 ± 0.029 |
| TRNNDKQTDTIV | 0.729 ± 0.048 |
| TRPGKRNGRPPR | 0.6995 ± 0.0008 |
| TRPSGSFLALPP | 0.685 ± 0.05 |
| TRPTQNKQIKNI | 0.6141 ± 0.0032 |
| TRRLILSPIRHF | 0.636 ± 0.015 |
| TRSISPGTFWTS | 0.723 ± 0.018 |

| Sequence | protein stability index |
| --- | --- |
| TRSSHSHLETFV | 0.684 ± 0.03 |
| TSGLGYVDCPKL | 0.709 ± 0.033 |
| TSGNSTALKMGR | 0.741 ± 0.059 |
| TSIDRLLIRYEK | 0.649 ± 0.12 |
| TSKHLTQRKESK | 0.659 ± 0.0082 |
| TSKRRRWGTTRK | 0.672 ± 0.074 |
| TSPQHPWPPAPL | 0.694 ± 0.06 |
| TSPSPPPTPCRS | 0.702 ± 0.018 |
| TSPTPFVSCSLP | 0.629 ± 0.044 |
| TSPVPPSTPAPP | 0.6686 ± 0.0045 |
| TSRNFPGLHDNY | 0.673 ± 0.052 |
| TSVAYVWRLFTE | 0.597 ± 0.016 |
| TSYEAKKKWQVI | 0.645 ± 0.025 |
| TSYNLPAAPHPV | 0.679 ± 0.037 |
| TTKNTSIKTKLK | 0.67 ± 0.026 |
| TTKTGQVEIYKV | 0.661 ± 0.033 |
| TTLSMYFCMCVL | 0.638 ± 0.14 |
| TTNGGPGNGAQN | 0.66543 ± 0.00044 |
| TTNLDKKILKTS | 0.6525 ± 0.0022 |
| TTPPFVSALPLS | 0.71142 ± 0.00043 |
| TTPTAPCLSSHD | 0.69 ± 0.042 |
| TTRLARNEQVKR | 0.62 ± 0.1 |
| TVAPNFIPTSTS | 0.662 ± 0.044 |

| Sequence | protein stability index |
| --- | --- |
| TVFPPLPTLPCV | 0.792 ± 0.1 |
| TVLRMFPPRSIW | 0.67 ± 0.046 |
| TVPAKQHLSGYE | 0.679 ± 0.011 |
| TVQPGAVRFILF | 0.703 ± 0.028 |
| TVRKMEKKKDGG | 0.663 ± 0.012 |
| TVVVGHSRLVVG | 0.703 ± 0.027 |
| TVYSPAYSIIHQ | 0.584 ± 0.053 |
| TWGACGKMLSDR | 0.682 ± 0.026 |
| TWIEGGVDRQRG | 0.683 ± 0.074 |
| TWIKVPVERTRP | 0.683 ± 0.053 |
| TYIRRTICGVLS | 0.587 ± 0.021 |
| TYLCLLVRDNRG | 0.706 ± 0.012 |
| TYNVVKSMVDNK | 0.672 ± 0.026 |
| TYPRPGSSIWLR | 0.572 ± 0.022 |
| TYRLLAEPTPPA | 0.702 ± 0.018 |
| TYYCFYCHPSLL | 0.699 ± 0.057 |
| VAAFGGGATNGV | 0.736 ± 0.029 |
| VAGQISGLIYFR | 0.699 ± 0.044 |
| VAHSPLPLILPI | 0.629 ± 0.041 |
| VAPPRQGSPASR | 0.725 ± 0.057 |
| VARFRGGPVPSF | 0.67 ± 0.045 |
| VARGCNSVYGYA | 0.653 ± 0.012 |
| VASITEIRKKGR | 0.629 ± 0.022 |

| Sequence | protein stability index |
| --- | --- |
| VATGVFADPMMC | 0.667 ± 0.11 |
| VAVCGTTNGKNA | 0.75 ± 0.033 |
| VAVGIVGGWWGV | 0.843 ± 0.11 |
| VAVIGAPPGNSR | 0.672 ± 0.029 |
| VAVRCVLWEGFS | 0.76 ± 0.084 |
| VAVSLFVPVLFL | 0.567 ± 0.061 |
| VAWTYDYTGVLR | 0.626 ± 0.037 |
| VCAASAGGARAG | 0.6213 ± 0.0025 |
| VCFVGSCFKLVL | 0.6324 ± 0.0032 |
| VCGGVWGGDNGG | 0.771 ± 0.049 |
| VCGLCGGFMGLA | 0.69 ± 0.042 |
| VCLFPDTMSWDC | 0.803 ± 0.075 |
| VCLVHSPFDTLP | 0.699 ± 0.037 |
| VCLVLGGVEWCV | 0.6861 ± 0.004 |
| VCRGRGVEGIGW | 0.695 ± 0.12 |
| VCSVLFPFLPLP | 0.7043 ± 0.0056 |
| VCSVVGGGYSWG | 0.686 ± 0.12 |
| VCVQECMPTAWR | 0.704 ± 0.036 |
| VDASGYDEQSVH | 0.6622 ± 0.0018 |
| VDNTRKRSTNSV | 0.694 ± 0.021 |
| VDSCASVGQGGL | 0.702 ± 0.044 |
| VDVPAGPGGGAC | 0.641 ± 0.077 |
| VDVWCGRGVGRG | 0.707 ± 0.031 |

| Sequence | protein stability index |
| --- | --- |
| VEAIKTSMFFLW | 0.711 ± 0.055 |
| VEFWGAVCNDCL | 0.706 ± 0.043 |
| VEGGGYVVHSGG | 0.657 ± 0.066 |
| VEPLLGHPISRD | 0.702 ± 0.049 |
| VERRTDRNLGSV | 0.645 ± 0.007 |
| VFAPWLFLFGFF | 0.521 ± 0.017 |
| VFCGRVVVGSVV | 0.65745 ± 0.0006 |
| VFCSCTARPPLR | 0.717 ± 0.023 |
| VFCTFVGPRSDV | 0.775 ± 0.13 |
| VFESGRYLRVAP | 0.777 ± 0.05 |
| VFGAHGRYQDSR | 0.607 ± 0.054 |
| VFGRGGRGGPLG | 0.647 ± 0.049 |
| VFLCNGVGGRGG | 0.681 ± 0.27 |
| VFLLFFFPCSSR | 0.528 ± 0.013 |
| VFLPPPPPPAPP | 0.639 ± 0.011 |
| VFLRGWGRSEGG | 0.679 ± 0.012 |
| VFLRVGAPPVRI | 0.586 ± 0.032 |
| VFNSFPLRLFGL | 0.693 ± 0.023 |
| VFRFCCQTGALR | 0.671 ± 0.02 |
| VFSCWQFAGGGY | 0.69 ± 0.037 |
| VFSLLRCLFRPP | 0.669 ± 0.012 |
| VFSLPFPSRSPL | 0.805 ± 0.028 |
